Reference: IntAct's records for PubMed 11545742

B1: DNA polymerase eta (Saccharomyces cerevisiae), Q04049 (parent)
chain: MSKFTWKELIQLGSPSKAYESSLACIAHIDMNAFFAQVEQMRCGLSKEDPVVCVQWNSIIAVSYAARKYGISRMDTIQEALKKCSNLIPIHTAVFKKGEDFWQYHDGCGSWVQDPAKQISVEDHKVSLEPYRRESRKALKIFKSACDLVERASIDEVFLDLGRICFNMLMFDNEYELTGDLKLKDALSNIREAFIGGNYDINSHLPLIPEKIKSLKFEGDVFNPEGRDLITDWDDVILALGSQVCKGIRDSIKDILGYTTSCGLSSTKNVCKLASNYKKPDAQTIVKNDCLLDFLDCGKFEITSFWTLGGVLGKELIDVLDLPHENSIKHIRETWPDNAGQLKEFLDAKVKQSDYDRSTSNIDPLKTADLAEKLFKLSRGRYGLPLSSRPVVKSMMSNKNLRGKSCNSIVDCISWLEVFCAELTSRIQDLEQEYNKIVIPRTVSISLKTKSYEVYRKSGPVAYKGINFQSHELLKVGIKFVTDLDIKGKNKSYYPLTKLSMTITNFDIIDLQKTVVDMFGNQVHTFKSSAGKEDEEKTTSSKADEKTPKLECCKYQVTFTDQKALQEHADYHLALKLSEGLNGAEESSKNLSFGEKRLLFSRKRPNSQHTATPQKKQVTSSKNILSFFTRKK

Variants of: B1
Settings: with pcna_yeast POL30, P15873
pcna_yeast POL30, P15873, sequence (P15873 whole entry): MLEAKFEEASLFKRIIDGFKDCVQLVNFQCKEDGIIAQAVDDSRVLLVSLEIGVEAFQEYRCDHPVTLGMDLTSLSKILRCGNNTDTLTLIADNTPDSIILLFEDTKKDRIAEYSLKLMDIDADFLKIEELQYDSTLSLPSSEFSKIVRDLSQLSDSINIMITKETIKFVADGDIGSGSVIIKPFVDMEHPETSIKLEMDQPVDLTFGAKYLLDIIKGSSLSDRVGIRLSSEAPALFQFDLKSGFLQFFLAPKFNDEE

Row | effect of a mutation on the interaction | Variant
1 | decreasing interaction | F627A;F628A
